Experimental data from article PMC6104806 (Nature structural & molecular biology, 2018).
Where a chain is given by its changes, count along the chain named. Read-outs that look alike come from different tables or passages of the source.

B1: CmDnm1 (native), mitochondrial fission dynamin from Cyanidioschyzon merolae (natural protein, UniProt Q84Y91 1-768, looked up)
chain: MERLIPIVNKLQDLFAETGLDSPIDLPQIMVVGAQSSGKSSVLENVVGESIFPRGTGIVTRRPIVVQLYCTARERLNQSGAPDNMFNEDGSYVLSDGAPTDPRSIPPGAENQAYAEFLHKPGVRFYNFDDVRAEIERETDRVTGKNKGISPKAINLRVYSPHVVNLTVVDLPGLTKVPVGDQPSDIERLIRAMVLSYIERPNAIILAVHPATMDLATSDALQIARQADPEGRRTLGVITKLDLMDKGTDAMEMLTGKVIPLKLGYIGVICRGPADLRAGKSIQQAREDEIRFFRSHPVYRRLLPQLGTNTLARTLSTLLMKHIRDTLPSIRQKMSQQLAEWRKELQTLGPAFEGADDLGGALLNVINRYSSEFAKSLEGNSQQTVNTQELYGGARINYIFNDIYAKELQSMNAFEGLTREDIRTAIRNATGHRSPLFVPELAFELLVKKQITHFVPPAYSCVDLVYDELVRLALNCETELLQRYENLRSEILACAQNLLRELKQPCLEMVQNLIAMETSYISVNHKDFIGGNKAMSQLVRARMEEEERRTRSAKAANSTDNAANSAPKESNANDNRILQPRRRNQDENAKKNDDARRKDDKSPNKTDASNAEKDARSDRNPRGDPTMDNFFNEADEDEEDGNERRNRGLHTLPSVPEHLKAGEVSSDRDRDDIELIQTLLASYFDVVRVNMMDMVPKAIMSFLVLRARDRMQSRLVADLYKPERMSELLNESSDVAERRATAKRMVDLLQRGMAVINEVRDVHVKEEI
B2: CmDnm1 GHRS431-434AAAA, self-assembly limiting stalk mutant (natural protein, Cyanidioschyzon merolae, UniProt Q84Y91 1-768, looked up)
chain: B1 chain with G431A, H432A, R433A, S434A

Columns and labels:
SEC [1] = target: the molecule itself; assay: SEC
SEC [2] = target: the molecule itself; assay: SEC; remark: listed apart in the source

Protein	stoichiometry N (SEC [1])	stoichiometry N (SEC [2])
B1	4	–
B2	–	4
